Measurements as given in patent US20260207700A1, “MEDICAL PRODUCTS CONTAINING AN AQUEOUS FORMULATION OF A PEPTIDE” (LYTIX BIOPHARMA AS, priority 2022, published 2026).
Non-standard residues stand in square brackets, D forms with d. No end group written: not given here. Dip = N[C@H](C(=O)O)C(c1ccccc1)c1ccccc1

Key:
[1] = 20-30° C., protected from light; cited from earlier work
[2] = pH of LTX-315 drug product on storage (Ph. Eur. 2.2.3), Example 1.1; format: physicochemical; settings: 20 mg/mL in WFI
Method: (§1) • LTX-315=acetate salt of peptide with sequence K-K-W-W-K-K-W-Dip-K-NH2 20 mg/mL LTX-315 drug product was prepared by dissolving LTX-315 powder in WFI and filtered through a 0.22 μm sterile filter. 1 ml of the drug product was then filled into vials and sealed. The WFI complied to the Ph. Eur monograph 0169 for WFI. All product contact vials, glassware and peripherals were sterilised by depyrogenation in a hot air oven at 250° C. for 120 minutes after twice rinsing with WFI. Product contact tubing, stoppers and over-seals were twice rinsed with WFI then sterilised by autoclaving for >15 minutes at 121° C. then dried overnight in a drying oven. The vials were stored as set out in Table 1 below and analysed according to the listed parameters. Appearance was tested visually according to Ph.Eur 2.9.20 and osmolality according to Ph. Eur. 2.2.35. pH was tested according to Ph. Eur. 2.2.3. Colour and clarity were tested according to Ph. Eur 2.2.2 and Ph. Eur 2.2.1, respectively.

[3] = Appearance of LTX-315 drug product in sealed vials on storage (visual, Ph.Eur 2.9.20), Example 1.1; format: physicochemical
Method: as §1

[4] = Purity/related substances after storage, HPLC, Example 1.3; format: physicochemical; settings: 20 mg/mL in WFI
Method: (§2) Reversed phase HPLC, using a trifluoracetic acid (TFA) system and UV detection at 220 nm, was used to determine the amount of LTX-315 after storage of the vials in accordance with the storage conditions set out in Table 2.
(§3) The column used was an RP C18, e.g. Waters Sunfire, 3.5 μm, 4.6×150 mm. The LTX-315 concentration in the test sample solution was 0.5 mg/ml and the injection volume 10 μl. The gradient profile used is set out below and the flow rate was 1.2 mL/min.
(§4) Drug product was prepared and stored as described in Example 1.1.
HPLC analysis was performed as described in Example 1.2 to determine the concentration of LTX-315 and the amount of related substances, i.e. substances formed due to and thus related to the degradation of LTX-315 in the drug product.

[5] = LTX-315 concentration after storage, reversed phase HPLC UV 220 nm, Example 1.2; format: physicochemical; settings: for LTX-315 concentration, Vial 1 / LTX-315 concentration, Vial 2 / Mean content / Rec./T = 0 / Rec./theory (percentage of theoretical 20 mg/mL): 20 mg/mL in WFI
Method: as §4, §2, §3

[6] = Osmolality of LTX-315 drug product on storage (Ph. Eur. 2.2.35), Example 1.1; format: physicochemical; settings: 20 mg/mL in WFI
Method: as §1

Compound: C[C@@H](O)[C@@H]1NC(=O)[C@H](CCCCN)NC(=O)[C@@H](Cc2c[nH]c3ccccc23)NC(=O)[C@H](Cc2ccccc2)NC(=O)[C@@H](NC(=O)[C@H](N)Cc2ccccc2)CSSC[C@@H](C(=O)N[C@H](CO)[C@@H](C)O)NC1=O [octreotide]
- Permitted storage time of liquid product [1]: up to 14 days

Compound: K-K-W-W-K-K-W-Dip-K-NH2 (KKWWKKW[Dip]K-NH2) [LTX-315]
- pH ([2]; 2-8° C., T = 3 months): 6.2
- pH ([2]; 2-8° C., T = 6 months): 6.0
- pH ([2]; 2-8° C., T = 12 months): 6.1
- pH ([2]; 2-8° C., T = 24 months): 6.1
- pH ([2]; 25° C./60% RH, T = 3 months): 6.2
- pH ([2]; 25° C./60% RH, T = 6 months): 6.1
- pH ([2]; Initial (T = 0)): 6.1
- Change in appearance, osmolality, pH, colour and clarity ([3]; 6 months at 25° C. with 60% RH in the dark): no change
- Change in appearance, osmolality, pH, colour and clarity ([3]; 24 months in the dark at 2-8° C.): no change
- Total related substances (sum of related substances >0.05%) ([4]; 2-8° C., 1 M): 1.31 area %
- Total related substances (sum of related substances >0.05%) ([4]; 2-8° C., 3 M): 1.32 area %
- Total related substances (sum of related substances >0.05%) ([4]; 2-8° C., 6 M): 0.98 area %
- Total related substances (sum of related substances >0.05%) ([4]; 2-8° C., 9 M): 1.54 area %
- Total related substances (sum of related substances >0.05%) ([4]; 2-8° C., 12 M): 1.34 area %
- Total related substances (sum of related substances >0.05%) ([4]; 2-8° C., 18 M): 1.37 area %
- Total related substances (sum of related substances >0.05%) ([4]; 2-8° C., 24 M): 1.64 area %
- Total related substances (sum of related substances >0.05%) ([4]; 2-8° C., Initial (T = 0)): 0.88 area %
- Total related substances (sum of related substances >0.05%) ([4]; 25° C./60% RH, 1 M): 1.55 area %
- Total related substances (sum of related substances >0.05%) ([4]; 25° C./60% RH, 3 M): 1.97 area %
- Total related substances (sum of related substances >0.05%) ([4]; 25° C./60% RH, 6 M): 2.31 area %
- Total related substances (sum of related substances >0.05%) ([4]; 25° C./60% RH, Initial (T = 0)): 0.88 area %
- LTX-315 concentration, Vial 1 ([5]; 2-8° C., T = 1 month): 20.548 mg/mL
- LTX-315 concentration, Vial 2 ([5]; 2-8° C., T = 1 month): 19.916 mg/mL
- Mean content ([5]; 2-8° C., T = 1 month): 20.2 mg/mL
- Rec./T = 0 ([5]; 2-8° C., T = 1 month): 96.3%
- Rec./theory (percentage of theoretical 20 mg/mL) ([5]; 2-8° C., T = 1 month): 101.2%
- LTX-315 concentration, Vial 1 ([5]; 2-8° C., T = 3 months): 21.241 mg/mL
- LTX-315 concentration, Vial 2 ([5]; 2-8° C., T = 3 months): 21.276 mg/mL
- Mean content ([5]; 2-8° C., T = 3 months): 21.2 mg/mL
- Rec./T = 0 ([5]; 2-8° C., T = 3 months): 101.1%
- Rec./theory (percentage of theoretical 20 mg/mL) ([5]; 2-8° C., T = 3 months): 106.3%
- LTX-315 concentration, Vial 1 ([5]; 2-8° C., T = 6 months): 20.979 mg/mL
- LTX-315 concentration, Vial 2 ([5]; 2-8° C., T = 6 months): 21.027 mg/mL
- Mean content ([5]; 2-8° C., T = 6 months): 21.0 mg/mL
- Rec./T = 0 ([5]; 2-8° C., T = 6 months): 99.9%
- Rec./theory (percentage of theoretical 20 mg/mL) ([5]; 2-8° C., T = 6 months): 105.0%
- LTX-315 concentration, Vial 1 ([5]; 2-8° C., T = 9 months): 20.311 mg/mL
- LTX-315 concentration, Vial 2 ([5]; 2-8° C., T = 9 months): 20.631 mg/mL
- Mean content ([5]; 2-8° C., T = 9 months): 20.4 mg/mL
- Rec./T = 0 ([5]; 2-8° C., T = 9 months): 97.4%
- Rec./theory (percentage of theoretical 20 mg/mL) ([5]; 2-8° C., T = 9 months): 102.4%
- LTX-315 concentration, Vial 1 ([5]; 2-8° C., T = 12 months): 20.895 mg/mL
- LTX-315 concentration, Vial 2 ([5]; 2-8° C., T = 12 months): 20.631 mg/mL
- Mean content ([5]; 2-8° C., T = 12 months): 20.7 mg/mL
- Rec./T = 0 ([5]; 2-8° C., T = 12 months): 98.8%
- Rec./theory (percentage of theoretical 20 mg/mL) ([5]; 2-8° C., T = 12 months): 103.8%
- LTX-315 concentration, Vial 1 ([5]; 2-8° C., T = 18 months): 19.204 mg/mL
- LTX-315 concentration, Vial 2 ([5]; 2-8° C., T = 18 months): 19.990 mg/mL
- Mean content ([5]; 2-8° C., T = 18 months): 19.6 mg/mL
- Rec./T = 0 ([5]; 2-8° C., T = 18 months): 93.2%
- Rec./theory (percentage of theoretical 20 mg/mL) ([5]; 2-8° C., T = 18 months): 98.0%
- LTX-315 concentration, Vial 1 ([5]; 2-8° C., T = 24 months): 20.150 mg/mL
- LTX-315 concentration, Vial 2 ([5]; 2-8° C., T = 24 months): 19.669 mg/mL
- Mean content ([5]; 2-8° C., T = 24 months): 19.9 mg/mL
- Rec./T = 0 ([5]; 2-8° C., T = 24 months): 94.7%
- Rec./theory (percentage of theoretical 20 mg/mL) ([5]; 2-8° C., T = 24 months): 99.5%
- LTX-315 concentration, Vial 1 ([5]; 25° C./60% RH, T = 1 month): 20.269 mg/mL
- LTX-315 concentration, Vial 2 ([5]; 25° C./60% RH, T = 1 month): 20.194 mg/mL
- Mean content ([5]; 25° C./60% RH, T = 1 month): 20.2 mg/mL
- Rec./T = 0 ([5]; 25° C./60% RH, T = 1 month): 96.2%
- Rec./theory (percentage of theoretical 20 mg/mL) ([5]; 25° C./60% RH, T = 1 month): 101.2%
- LTX-315 concentration, Vial 1 ([5]; 25° C./60% RH, T = 3 months): 20.897 mg/mL
- LTX-315 concentration, Vial 2 ([5]; 25° C./60% RH, T = 3 months): 20.222 mg/mL
- Mean content ([5]; 25° C./60% RH, T = 3 months): 20.5 mg/mL
- Rec./T = 0 ([5]; 25° C./60% RH, T = 3 months): 97.8%
- Rec./theory (percentage of theoretical 20 mg/mL) ([5]; 25° C./60% RH, T = 3 months): 102.8%
- LTX-315 concentration, Vial 1 ([5]; 25° C./60% RH, T = 6 months): 20.575 mg/mL
- LTX-315 concentration, Vial 2 ([5]; 25° C./60% RH, T = 6 months): 20.215 mg/mL
- Mean content ([5]; 25° C./60% RH, T = 6 months): 20.3 mg/mL
- Rec./T = 0 ([5]; 25° C./60% RH, T = 6 months): 97.0%
- Rec./theory (percentage of theoretical 20 mg/mL) ([5]; 25° C./60% RH, T = 6 months): 102.0%
- LTX-315 concentration, Vial 1 ([5]; Initial (T = 0)): 21.068 mg/mL
- LTX-315 concentration, Vial 2 ([5]; Initial (T = 0)): 20.978 mg/mL
- Mean content ([5]; Initial (T = 0)): 21.0 mg/mL
- Rec./theory (percentage of theoretical 20 mg/mL) ([5]; Initial (T = 0)): 105.1%
- Change in LTX-315 concentration ([5]; 2-8° C., 24 months): very slight decrease
- Concentration of LTX-315 versus T=0 ([5]; 25° C. with 60% relative humidity, six months): the same as the concentration at T=0
- Osmolality ([6]; 2-8° C., T = 6 months): 133 mOsmkg^−1
- Osmolality ([6]; 2-8° C., T = 12 months): 133 mOsmkg^−1
- Osmolality ([6]; 2-8° C., T = 24 months): 132 mOsmkg^−1
- Osmolality ([6]; 25° C./60% RH, T = 6 months): 133 mOsmkg^−1
- Osmolality ([6]; Initial (T = 0)): 132 mOsmkg^−1
